Square brackets hold non-standard residues; d marks the D form.
B1: c[Pro-Arg-Phe-Phe-Glu-Ala-Phe-DPro] (peptide)
peptide: cyclo(PRFFEAF[dP])
B2: c[Pro-Arg-Phe-Phe-Asp-Ala-Phe-DPro] (peptide)
peptide: cyclo(PRFFDAF[dP])
B3: hAGRP(86-132) (ligand, human, UniProt O00253 86-132, looked up)
chain: RCVRLHESCLGQQVPCCDPCATCYCRFFNAFCYCRKLGTAMNPCSRT
notes: range 86-132; also called C-terminal domain of AGRP
B4: c[Pro-Arg-Phe-Phe-Ala-Ala-Phe-DPro] (peptide)
peptide: cyclo(PRFFAAF[dP])
B5: c[Pro-Arg-Phe-Phe-Ser-Ala-Phe-DPro] (peptide)
peptide: cyclo(PRFFSAF[dP])
B6: c[Pro-Arg-Phe-Phe-DDap-Ala-Phe-DPro] (peptide)
peptide: PRFFXAFP
modifications: head-to-tail cyclic; DDap at 5; DPro at 8
B7: c[Pro-Arg-Phe-Phe-Dap-Ala-Phe-DPro] (peptide)
peptide: PRFFXAFP
modifications: head-to-tail cyclic; Dap at 5; DPro at 8
B8: c[Pro-Arg-Phe-Phe-Asn-Ala-Phe-DPro] (peptide)
peptide: cyclo(PRFFNAF[dP])
modifications: also: assayed as TFA salt
B9: c[Pro-Arg-Phe-Phe-Asn-Ala-Asp-DPro] (peptide)
peptide: cyclo(PRFFNAD[dP])
SMILES: C[C@@H]1NC(=O)[C@H](CC(N)=O)NC(=O)[C@H](Cc2ccccc2)NC(=O)[C@H](Cc2ccccc2)NC(=O)[C@H](CCCNC(=N)N)NC(=O)[C@@H]2CCCN2C(=O)[C@H]2CCCN2C(=O)[C@H](CC(=O)O)NC1=O

target: T1, human melanocortin-4 receptor (human, UniProt P32245 1-332); test: displacement of 125I-AGRP, HEK293 cells expressing hMC4R
T1 construct: whole, on cells; in the thallium flux assay co-expressed with Kir7.1 (M125R); also called hMC4R; wildtype hMC4R
Protocol: (§1) Competitive binding affinity experiments were performed on HEK-293 cells stably expressing the wildtype hMC4R. […] The assay media was carefully aspirated and cells were washed once with assay buffer. Cell were lysed with 500 μL 0.1 M NaOH and 500 μL 1% Triton X-100 for a minimum of 10 min. […] All experiments were performed with duplicate data points and in at least two independent experimental replicates. […] Concentration-response curves and IC₅₀ values were generated and analyzed by the PRISM program (version 4.0. GraphPad Inc.) by a nonlinear regression method. The standard error of the mean (SEM) was derived from the IC₅₀ values from at least two independent experimental replicates.

Row | IC50 [µM] | Binder
1 | 1.4 | B1
2 | 1.3 | B2
3 | 0.012 | B3

target: T1, human melanocortin-4 receptor; test: displacement of 125I-NDP-MSH, HEK293 cells expressing hMC4R
Protocol: as §1

Row | IC50 [µM] | Binder
4 | 2.5 | B1
5 | 3.6 | B2

target: T2, mouse melanocortin-3 receptor (mouse, UniProt P33033 1-323); test: cell-based or functional assay
T2 sequence (P33033 whole entry): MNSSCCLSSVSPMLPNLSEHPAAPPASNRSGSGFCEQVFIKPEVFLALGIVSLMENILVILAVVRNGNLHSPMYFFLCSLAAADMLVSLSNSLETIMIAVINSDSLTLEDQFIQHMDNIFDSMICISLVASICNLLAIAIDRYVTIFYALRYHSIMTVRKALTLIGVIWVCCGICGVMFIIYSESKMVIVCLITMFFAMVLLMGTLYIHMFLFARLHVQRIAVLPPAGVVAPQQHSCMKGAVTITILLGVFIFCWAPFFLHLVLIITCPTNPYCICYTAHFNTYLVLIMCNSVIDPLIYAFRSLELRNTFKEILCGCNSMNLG

Row | agonist EC50 (cAMP AlphaScreen) [µM] | antagonist pA2 (Schild, agonist NDP-MSH) | Binder
6 | > 100 | < 5.5 | B4
7 | > 100 | < 5.5 | B1
8 | > 100 | < 5.5 | B2
9 | > 100 | 5.9 | B5
10 |  | 8.7 | B3
11 | > 100 | 6.7 | B6
12 | > 100 | 6.52 | B7

target: T3, mouse melanocortin-1 receptor (mouse, UniProt Q01727 1-315); test: cell-based or functional assay
T3 sequence (Q01727 whole entry): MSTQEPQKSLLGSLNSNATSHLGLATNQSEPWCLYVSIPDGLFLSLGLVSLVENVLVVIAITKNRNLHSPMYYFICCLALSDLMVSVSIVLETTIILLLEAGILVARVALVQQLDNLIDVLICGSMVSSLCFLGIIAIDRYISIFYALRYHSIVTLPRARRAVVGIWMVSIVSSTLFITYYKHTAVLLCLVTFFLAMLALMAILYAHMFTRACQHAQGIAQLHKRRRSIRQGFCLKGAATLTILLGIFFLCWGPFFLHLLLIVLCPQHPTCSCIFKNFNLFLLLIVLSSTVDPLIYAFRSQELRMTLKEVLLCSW

Row | agonist EC50 (cAMP AlphaScreen) [µM] | % maximal NDP-MSH response at 100 µM (cAMP AlphaScreen) [%] | Binder
13 | > 100 |  | B4
14 | 20.5 |  | B1
15 | > 100 |  | B2
16 |  | 25 | B8
17 | > 100 |  | B5
18 | > 100 |  | B6
19 |  | 30 | B7

target: T4, mouse melanocortin-5 receptor (mouse, UniProt P41149 1-325); test: cell-based or functional assay
T4 sequence (P41149 whole entry): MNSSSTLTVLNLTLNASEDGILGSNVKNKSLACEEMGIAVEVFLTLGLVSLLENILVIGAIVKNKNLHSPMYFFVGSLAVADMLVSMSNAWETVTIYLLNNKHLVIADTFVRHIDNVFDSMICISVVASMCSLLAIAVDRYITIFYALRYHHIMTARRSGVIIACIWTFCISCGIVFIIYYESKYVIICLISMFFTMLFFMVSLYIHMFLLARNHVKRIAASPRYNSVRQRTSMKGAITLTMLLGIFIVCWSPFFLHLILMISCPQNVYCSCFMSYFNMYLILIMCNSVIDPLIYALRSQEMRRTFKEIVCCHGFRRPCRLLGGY

Row | inverse agonist apparent potency [µM] | inverse agonist, % decrease from basal cAMP [%] | inverse agonist, % change from basal cAMP at 100 µM [%] | Binder
20 | 0.25 | -20 |  | B4
21 | 0.7 | -10 |  | B1
22 |  |  | -25 | B2
23 | 0.14 | -25 |  | B5
24 | 0.11 | -10 |  | B6
25 | 0.06 | -15 |  | B7

target: T5, mouse melanocortin-4 receptor (mouse, UniProt P56450 1-332); test: cell-based or functional assay
T5 sequence (P56450 whole entry): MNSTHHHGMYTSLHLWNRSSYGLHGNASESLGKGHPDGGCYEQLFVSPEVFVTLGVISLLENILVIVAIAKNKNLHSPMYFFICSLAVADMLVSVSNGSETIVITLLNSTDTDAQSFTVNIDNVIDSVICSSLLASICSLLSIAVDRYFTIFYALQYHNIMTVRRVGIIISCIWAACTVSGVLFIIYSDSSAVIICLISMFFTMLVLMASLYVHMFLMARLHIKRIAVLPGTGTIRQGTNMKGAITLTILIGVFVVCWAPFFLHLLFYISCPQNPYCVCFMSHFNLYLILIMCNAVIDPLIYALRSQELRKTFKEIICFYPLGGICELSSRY

Row | agonist EC50 (cAMP AlphaScreen) [µM] | antagonist pA2 (Schild, agonist NDP-MSH) | Binder
26 | > 100 | 7.32 | B4
27 | > 100 | 7 | B1
28 | > 100 | 6.79 | B2
29 | > 100 | 7.7 | B5
30 |  | 8.7 | B3

target: T3, mouse melanocortin-1 receptor; test: cell-based or functional assay; remark: another data set of the same source

Row | agonist EC50 (cAMP AlphaScreen) [µM] | partial agonist, % receptor stimulation [%] | Binder
31 | 2.8 | 80 | B8
32 | 1.6 | 80 | B7

target: T4, mouse melanocortin-5 receptor; test: cell-based or functional assay; remark: another data set of the same source

Row | EC50 (cAMP AlphaScreen, inverse agonist) [µM] | Binder
33 | > 100 | B7

target: T2, mouse melanocortin-3 receptor; test: cell-based or functional assay; remark: another data set of the same source

Row | antagonist pA2 (Schild, agonist NDP-MSH) | Binder
34 | < 5.5 | B9

target: T3, mouse melanocortin-1 receptor; test: cell-based or functional assay; remark: another data set of the same source

Row | % activation at 100 µM (cAMP AlphaScreen) [%] | Binder
35 | 40 | B9

target: T4, mouse melanocortin-5 receptor; test: cell-based or functional assay; remark: another data set of the same source

Row | inverse agonist, % change from basal cAMP at 100 µM [%] | Binder
36 | -25 | B9

target: T5, mouse melanocortin-4 receptor; test: cell-based or functional assay; remark: another data set of the same source

Row | antagonist pA2 (Schild, agonist NDP-MSH) | Binder
37 | < 5.5 | B9

target: T1, human melanocortin-4 receptor; test: cell-based or functional assay

Row | inverse agonist, % decrease from basal signal [%] | antagonist pA2 (Schild, agonist NDP-MSH) | inverse agonist apparent potency (EC50) [µM] | Binder
38 | -35 |  |  | B4
39 | -30 |  |  | B8
40 | -25 |  |  | B5
41 | -35 | 8.8 | 0.0024 | B3
42 | -30 |  |  | B6
43 | -50 |  |  | B7

From US20200115416A1 (REGENTS OF THE UNIVERSITY OF MINNESOTA, published 2020)
